Measurements reported in publication PMC6249979.

Molecular target: Flag-actin-WT, P60709
Assay: co-immunoprecipitation with anti-Flag magnetic beads, competition with purified MRTF-A (2-261), immunoblot quantification
Settings: chain shown with the change; NIH 3T3 cells co-expressing Flag-actin-WT and myc-JMY constructs, serum-starved for 24 h post transfection; purified MRTF-A (2-261) added to the lysates prior …; parent: est. 0.97; read off a plot

- other: relative amount of MRTF-A bound to Flag-actin (competition by co-expressed JMY): 0.59
B1: myc-JMY-f.l., Q9QXM1 R961E (protein)
chain: MSFALEETLESDWVAVRPHVFDEREKHKFVFIVAWNEIEGKFAITCHNRTAQRQRSGSREQAGTPASDGSRGPGSPAARGRSEAAASATAALRSPGPRKSQAWAEGGSPRSARSLKGDPPRGPAGRGPESPLRSPARAKASPLRRSAESRDAIASATPVPPAPPVPPVSSVRVVSASGAVSEEIEVLEMVREDEAPQPLPDSEQPPSAAELESSAEECSWAGLFSFQDLRAVHQQLCSVNSQLEPCLPVFPEEPSGMWTVLFGGAPEMTEQEIDALCYQLQVYLGHGLDTCGWKILSQVLFTETDDPEEYYESLSELRQKGYEEVLQRARRRIQELLDKHKTIESMVELLDLYQMEDEAYSSLAEATTELYQYLLQPFRDMRELAMLRRQQIKISMENDYLGPRRIESLQKEDADWQRKAHMAVLSIQDLTVKYFEITAKAQKAVYDRMRADQKKFGKASWAAAAERMEKLQYAVSKETLQMMRAKEICLEQKKHALKEEMQSLQGGTEAIARLDQLESDYYDLQLQLYEVQFEILKCEELLLTAQLESIKRLISEKRDEVVYYDTYESMEAMLEKEEMAASVHAQREELQKLQQKARQLEARRGRVSAKKAYLRNKKEICIAKHHEKFQQRFQSEDEYRAHHTIQIKRDKLHDEEERKSAWVSQERQRTLDRLRTFKQRYPGQVILKSTRLRVAHSRRKSTASPVPCEEQCHSLPTVLQGQEKTEVGGGGSQLGPSQTAEPQSLVQLEDTSSEQLESTSLPPRAVVSSELPPPQSAPLLTSIDPKPCSVTIDPLPPPLPPTPPPPPPPPPPPPPPLPVAKDNGASTTAETLEKDALRTEGNERSIPKSASAPAAHLFDSSQLVSARKKLRKTVEGLQRRRVSSPMDEVLASLKRGSFHLKKVEQRTLPPFPDEDDSNNILAQIRKGVKLKKVQKEVLRESFTLLPDTDPLTRSIHEALREIKEASPESEDEEEALPCTDWEN
